Measurements published in patent US20060121580A1.
Residue numbers refer to the chain shown, from its start.

B1: SC03-057 (scFv)
scFv: AMAQVQLVQSGAEVKKPGSSVKVSCKASGGTFSRYAISWVRQAPGQGLEWMGRINPILNLTNYAQKFQGRVTITADKSTSTAYMEMSSLRSEDTAIYYCASPDIVVAGHASPPHYTMDVWGQGTTVTVSSGTGGSGGTGSGTGGSTDIQMTQSPSSLSASVGDRVTITCRASQGIRNDLGWYQQKPGKAPNLLIYQASALQSGVPSRFSGSESGAEFTLTISSLHPDDFATYYCQQYHDFPITFGQGTRLEIKRAA
B2: bivalent scFv pyBi03-006C02 (scFv)
scFv: SMAEVQLVESGGGLVQPGGSLRLSCAASGFTFSGYPMHWVRQAPGKGLEWVAVISYDGSNKYYADSVKGRFTISRDNSKNTLYLQMNSLRAEDTAVYYCAKDGSPRTPSFDYWGQGTLVTVLEGTGGSGGTGSGTGTSELDIQMTQSPHSLSASVGDRVTITCRASQGISNYLAWYQQKPGKVPKLLIYAASTLQSGVPSRFSGSGSGTDFTLTISSLQPEDVGVYYCQQRFRTPVTFGQGTKLEIKRAAA
B3: SC03-055 (scFv)
scFv: AMAQVQLQQWGAGLLKPSETLSLTCAVYGGSFSGFYWSWIRQPPGKGLEWIGEINHSGSTNYNPSLKSRVTISADTSKNQFSLKLSSVTAADTAVYYCARRVEVVEYQLLRPRYKSWFDPWGQGTLVTVSSGTGGSGGTGSGTGGSTQSVLTQPPSVSGAPGQRVSISCSGSGANGGTDPVSWYQKFPGTAPHLLIYDNNKRPSGIPDRFSGSKSGASATLDITGLQTGDEADYYCGAWDPSLSGYVFGTGTQLTVLSAA
B4: SC03-031 (scFv)
scFv: AMAQVQLVQSGADVKKPGSSVKVSCEASGGTFSSYAISWVRQAPGQGLEWMGRIIPILGITNYAQKFQGRVTITADKSTGTGNMELSSLRSEDTAVYYCARESGGGYDNHFDYWGQGTLVTVSSGTGGSGGTGSGTGGSTQSVLTQPPSASGTPGQRVTISCSGGSSNIGSNTVNWYQQLPGTAPKLVIYANNQRPSGVPDRFSASKSGTSASLAISGLQSEDEADYYCAAWDDSLTGGVFGGGTQLTVLSAA
B5: SC03-046 (scFv)
scFv: AMAEVQLVQSGGGLVQPGGSLRLSCAASGFTFSSYAMHWVRQAPGKGLEYVSGISSNGGSTYYANSVKGRFTISRDNSKNTLYLQMGSLRAEDMAVYYCARTTNRAFDIWGQGTMVTVSSGTGGSGGTGSGTGGSTDVVMTQSPDSLAVSLGERATINCKSSQSVLYSSNNKNYLAWYQQKPGQPPKLLIYWASTRESGVPDRFSGSGSGTDFSLTISSLQAEDVAVYYCQQYYSPPYTFGPGTKVEIKRAA
B6: SC03-054 (scFv)
scFv: B5 scFv with L14V, G19R, V138I, V139Q, M140L, S207G, S214T, P236T, T239S, P242Q
B7: SC03-026 (scFv)
scFv: B5 scFv with E4Q, V138I, V139Q, V165I, N171S, A176G, S214T, P236T, T239S, P242Q
B8: SC03-040 (scFv)
scFv: B5 scFv with E4Q, V138I, V139Q, K160R, S214T, P236S, T239S, P242Q, V246L
B9: SC03-025 (scFv)
scFv: AMAEVQLVESGGGLVQPGGSLRLSCAASGFTFSSYAMHWVRQAPGKGLEYVSGISSNGGSTYYANSVKGRFTISRDNSKNTLYLQMGSLRAEDMAVYYCARTTNRAFDIWGQGTMVTVSSGTGGSGGTGSGTGGSTDIQLTQSPDSLAVSLGERATINCKSSQSVLYSSNNKNYLAWYQQKPGQPPKLLIYWASIRESGVPDRFSGSGSGTDFTLTISSLQAEDVAVYYCQQYYNIPYAFGQGTKLEIKRAA
B10: SC03-044 (scFv)
scFv: B9 scFv with S10T, L140M, I195T, S205R, V225L, N235S, I236T, A239S
B11: SC03-043 (scFv)
scFv: B9 scFv with E4Q, E9Q, S168R, I195T, P201S, D202E, N235S, I236T, A239S
B12: SC03-037 (scFv)
scFv: AMAKVQLVQSGGGLIQPGGSLRLSCAASGFTVSSNYMSWVRQAPGKGLEWVSIVFSGGSTYYADSVKGRFTISRDNSKNTLYLQMNSLRAEDTAVYYCARDAHRGFGMDVWGQGTTVTVSSGTGGSGGTGSGTGGSTSSELTQDPAVSVALGQTVRITCQGDSLRSYYASWYQQKPGQAPVLVIYGKNNRPSGIPDRFSGSSSGNTASLTITGAQAEDEADYYCNGRDSSGNHWVFGGGTKLTVLGAA
B13: SC03-038 (scFv)
scFv: B12 scFv with K4E, N205D, G226S
B14: SC03-024 (scFv)
scFv: AMAQVQLVESGSELKIPGASVKVSCKATGYTFTRYSLNWVRQAPGQGLEWVGWINTQTGNSNYGQAFSGRFVFSLDTSVSTAYLQISSLQAEDTATYYCARKSAGSNAFDIWGQGTMVTVSSGTGGSGGTGSGTGGSTQSVVTQPPSVSAAPGQKATISCSGSSSNIGNNYVSWYQQLPGTAPKLLIYDNNKRPSGIPNRFSGSKSGTSATLGITGLQTGDEADYYCGTWDSSLSAYVFGTGTKVTVLGAA
B15: SC03-034 (scFv)
scFv: AMAEVQLVQSGAEVKKPGESLKISCKGSGYGFITYWIGWVRQMPGKGLEWMGIIYPGDSETRYSPSFQGQVTISADKSINTAYLQWSSLKASDTAIYYCAGGSGISTPMDVWGQGTTVTVSSGTGGSGGTGSGTGGSTDVVMTQSPDSLAVSLGERATINCKSSQSILNRSNNKNYLAWYQQKPGQPPKLLIYWASTRESGVPDRFSGSGSGTDFNLTISSLQAEDVAVYYCQQYNNWPLTFGGGTKVDIKRAA
B16: SC03-023 (scFv)
scFv: AMAQVQLQQWGAGLLKPSETLSLTCAVYGGSFSGFYWSWIRQPPGKGLEWIGEINHSGSTNYNPSLKSRVTISVDTSKNQFSLKLSSVTAADTAVYYCARRVEVVEYQLLRPRYKSWFDPWGQGTLVTVSSGTGGSGGTGSGTGGSTQSALTQPRSVSGSPGQSVTISCTGSSSTVGGYNYVSWYQQHPGKAPKLMIYDVSKRPSGVSNRFSGSKSGNTASLTISGLQAEDEADYYCSSYTSSSTYVFGTGTKVTVLGAA
B17: SC03-036 (scFv)
scFv: AMAEVQLVQSGTEVKKPGESLKISCKGSGYGFITYWIGWVRQMPGKGLEWMGIIYPGDSETRYSPSFQGQVTISADKSINTAYLQWSSLKASDTAIYYCAGGSGISTPMDVWGQGTTVTVSSGTGGSGGTGSGTGGSTDIQMTQSPDSLAVSLGERATINCKSSQSVLHSPNNKNYLAWYQQKPGQPPKLLIYWASTRESGVPDRFSGSGSGTDFTLTISSLQAEDVAVYYCQQYYSTNSFGQGTKLEIKRAA
B18: SC03-033 (scFv)
scFv: AMAQVQLVQSGTEVKKPGESLKISCKGSGYGFITYWIGWVRQMPGKGLEWMGIIYPGDSETRYSPSFQGQVTISADKSINTAYLQWSSLKASDTAIYYCAGGSGISTPMDVWGQGTTVTVSSGTGGSGGTGSGTGGSTDVVMTQSPDSLAVSLGERATINCKTSHNIFSRSNNKDYLAWYQQKPGQPPRLLIYWASTRASGVPERFSGSGSGTDFSLTISSLQAEDVAVYYCQQYYSSPMYSFGQGTKVEIKRAA
B19: SC03-051 (scFv)
scFv: AMAQVQLVQSGTEVKKPGESLKISCKGSGYGFITYWIGWVRQMPGKGLEWMGIIYPGDSETRYSPSFQGQVTISADKSINTAYLQWSSLKASDTAIYYCAGGSGISTPMDVWGQGTTVTVSSGTGGSGGTGSGTGGSTDIQMTQSPDSLAVSLGERATINCKSGQSILYSSNDKNYLAWYQQKPGQPPKLLIYWASTRESGVPDRFSGSGSGTDFTLTISSLQAEDVAVYYCQQYYSTPYTFGQGTKVEIKRAA
B20: SC03-020 (scFv)
scFv: B19 scFv with Q4E, T12S, G164S, S166K, Y169H, D173N, Y240P, T241V, Q244G
B21: SC03-021 (scFv)
scFv: B19 scFv with I140V, Q141V, G164S, I167V, Y169H, D173N, E199Q, Y240P
B22: SC03-039 (scFv)
scFv: AMAEVQLVESGGGLVQPGGSLRLSCAASGFTFSSYAMSWVRQAPGKGLEWVSVIYSGGTSTYYADSVKGRFTISRDNSKNTLYLQMNSLRAEDTAVYFCAKGSKWNDVGGGDYWGQGTLVTVSSGTGGSGGTGSGTGGSTNFMLTQPHSVSESPGKTVTISCAGSSGSIASNYVQWYQQRPGSAPTTVIYEDNQRPSGVPDRFSGSIDSSSNSASLTISGLKTEDEADYYCQSYDGYLWIFGGGTKLTVLGAA

How the values were obtained:
[1] = target: SARS-CoV preparation (Frankfurt 1 strain); test: phage ELISA on coated SARS-CoV preparation, plate 3 (no phage antibody 0.054)
[2] = target: SARS-CoV strain Frankfurt 1 (infectious virus); test: cell-based or functional assay
[3] = target: SARS-CoV strain Frankfurt 2 (infectious virus); test: cell-based or functional assay
[4] = target: SARS-CoV preparation (Frankfurt 1 strain); test: phage ELISA on coated SARS-CoV preparation, plate 4 (no phage antibody 0.051)
[5] = target: SARS-CoV preparation (Frankfurt 1 strain); test: phage ELISA on coated SARS-CoV preparation, plate 2 (no phage antibody 0.211)

Row | Binder | OD492 nm [1] | OD492 nm [4] | other results
1 | B1 | 1.19 OD492 nm |  | 
2 | B2 |  |  | Neutralization titer for Frankfurt 1 strain (dilution factor) [2]: < 20; Neutralization titer for Frankfurt 2 strain (dilution factor) [3]: < 20
3 | B3 | 0.608 OD492 nm |  | 
4 | B4 |  | 0.635 OD492 nm | 
5 | B5 | 1.9 OD492 nm |  | 
6 | B6 |  | 0.428 OD492 nm | 
7 | B7 |  |  | OD492 nm [5]: 1.07 OD492 nm
8 | B8 |  | 0.616 OD492 nm | 
9 | B9 |  |  | OD492 nm [5]: 1.64 OD492 nm
10 | B10 |  | 0.518 OD492 nm | 
11 | B11 | 1.27 OD492 nm |  | 
12 | B12 |  | 0.287 OD492 nm | 
13 | B13 |  | 0.314 OD492 nm | 
14 | B14 |  |  | OD492 nm [5]: 0.235 OD492 nm
15 | B15 | 0.802 OD492 nm |  | 
16 | B16 |  |  | OD492 nm [5]: 1.31 OD492 nm
17 | B17 | 0.24 OD492 nm |  | 
18 | B18 |  | 0.288 OD492 nm | 
19 | B19 | 0.602 OD492 nm |  | 
20 | B20 |  |  | OD492 nm [5]: 0.671 OD492 nm
21 | B21 |  |  | OD492 nm [5]: 0.215 OD492 nm
22 | B22 | 0.851 OD492 nm |  | 
